To fix the notation:
T1: PUF4 RNA-binding domain (Saccharomyces cerevisiae, UniProt P25339 537-888)
T1 sequence: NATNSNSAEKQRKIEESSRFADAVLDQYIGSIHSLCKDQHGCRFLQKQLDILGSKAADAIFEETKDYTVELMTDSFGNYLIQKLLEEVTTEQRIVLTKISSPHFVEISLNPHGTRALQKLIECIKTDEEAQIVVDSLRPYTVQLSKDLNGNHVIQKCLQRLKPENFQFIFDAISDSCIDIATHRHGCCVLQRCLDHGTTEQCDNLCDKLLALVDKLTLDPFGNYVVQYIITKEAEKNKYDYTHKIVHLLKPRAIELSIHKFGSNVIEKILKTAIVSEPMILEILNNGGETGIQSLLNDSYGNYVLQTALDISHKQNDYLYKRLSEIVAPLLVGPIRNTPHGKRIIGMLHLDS

B1: Ic_S2_P4E.1_K4.1_C4.1_H4.1_A4.1_[T5C]_[A6C]_[T7A]_F4.1_[T8C]_[A9G]_T4.1 (ssRNA)
RNA: UUUGAUUAAUAUGAUAUCGUUCUUUCUUGUACCACGUUCUUUCUCGAUAUCAUAUUAAUCUUU
B2: Ic_S2_P4E.1_K4.1_C4.1_H4.1_A4.1_[T5C]_[A6G]_F4.1_[T8C]_T4.1 (ssRNA)
RNA: UUUGAUUAAUAUGAUAUCGUUCUUUCUUGUACGUCAUUCUUUCUCGAUAUCAUAUUAAUCUUU
B3: Ic_S2_P4E.1_K4.1_C4.1_H4.1_A4.1_[T5C]_[A6C]_[T7C]_F4.1_[T8G]_[A9G]_T4.1 (ssRNA)
RNA: UUUGAUUAAUAUGAUAUCGUUCUUUCUUGUACCCGGUUCUUUCUCGAUAUCAUAUUAAUCUUU
B4: Ic_S2_P4E.1_K4.1_C4.1_H4.1_A4.1_[T5C]_[A6C]_[T7C]_F4.1_T4.1 (ssRNA)
RNA: UUUGAUUAAUAUGAUAUCGUUCUUUCUUGUACCCUAUUCUUUCUCGAUAUCAUAUUAAUCUUU
B5: Ic_S2_P4E.1_K4.1_C4.1_H4.1_A4.1_[T5C]_[A6C]_[T7C]_F4.1_[A9T]_T4.1 (ssRNA)
RNA: UUUGAUUAAUAUGAUAUCGUUCUUUCUUGUACCCUUUUCUUUCUCGAUAUCAUAUUAAUCUUU
B6: Ic_S2_P4E.1_K4.1_C4.1_H4.1_A4.1_[T5C]_[A6C]_[T7C]_F4.1_[T8C]_[A9G]_T4.1 (ssRNA)
RNA: UUUGAUUAAUAUGAUAUCGUUCUUUCUUGUACCCCGUUCUUUCUCGAUAUCAUAUUAAUCUUU
B7: Ic_S2_P4E.1_K4.1_C4.1_H4.1_A4.1_[T5C]_[A6C]_[T7G]_F4.1_[T8C]_[A9T]_T4.1 (ssRNA)
RNA: UUUGAUUAAUAUGAUAUCGUUCUUUCUUGUACCGCUUUCUUUCUCGAUAUCAUAUUAAUCUUU
B8: Ic_S2_P4E.1_K4.1_C4.1_H4.1_A4.1_[T5G]_[A6T]_[T7A]_F4.1_T4.1 (ssRNA)
RNA: UUUGAUUAAUAUGAUAUCGUUCUUUCUUGUAGUAUAUUCUUUCUCGAUAUCAUAUUAAUCUUU
B9: Ic_S2_P4E.1_K4.1_C4.1_H4.1_A4.1_[T5C]_[A6C]_[T7C]_F4.1_[T8G]_[A9C]_T4.1 (ssRNA)
RNA: UUUGAUUAAUAUGAUAUCGUUCUUUCUUGUACCCGCUUCUUUCUCGAUAUCAUAUUAAUCUUU
B10: Ic_S2_P4E.1_K4.1_C4.1_H4.1_A4.1_[T5C]_[A6C]_[T7A]_F4.1_[T8G]_[A9T]_T4.1 (ssRNA)
RNA: UUUGAUUAAUAUGAUAUCGUUCUUUCUUGUACCAGUUUCUUUCUCGAUAUCAUAUUAAUCUUU
B11: Ic_S2_P4E.1_K4.1_C4.1_H4.1_A4.1_[T5C]_[A6G]_[T7C]_F4.1_[T8G]_[A9T]_T4.1 (ssRNA)
RNA: UUUGAUUAAUAUGAUAUCGUUCUUUCUUGUACGCGUUUCUUUCUCGAUAUCAUAUUAAUCUUU
B12: Ic_S2_P4E.1_K4.1_C4.1_H4.1_A4.1_[T5C]_[A6G]_F4.1_[A9G]_T4.1 (ssRNA)
RNA: UUUGAUUAAUAUGAUAUCGUUCUUUCUUGUACGUUGUUCUUUCUCGAUAUCAUAUUAAUCUUU
B13: Ic_S2_P4E.1_K4.1_C4.1_H4.1_A4.1_[T5G]_[A6T]_F4.1_[T8A]_[A9T]_T4.1 (ssRNA)
RNA: UUUGAUUAAUAUGAUAUCGUUCUUUCUUGUAGUUAUUUCUUUCUCGAUAUCAUAUUAAUCUUU
B14: Ic_S2_P4E.1_K4.1_C4.1_H4.1_A4.1_[T5C]_[A6C]_[T7C]_F4.1_[T8C]_[A9T]_T4.1 (ssRNA)
RNA: UUUGAUUAAUAUGAUAUCGUUCUUUCUUGUACCCCUUUCUUUCUCGAUAUCAUAUUAAUCUUU
B15: Ic_S2_P4E.1_K4.1_C4.1_H4.1_A4.1_[T5C]_[A6C]_[T7C]_F4.1_[T8A]_[A9T]_T4.1 (ssRNA)
RNA: UUUGAUUAAUAUGAUAUCGUUCUUUCUUGUACCCAUUUCUUUCUCGAUAUCAUAUUAAUCUUU
B16: Ic_S2_P4E.1_K4.1_C4.1_H4.1_A4.1_[T5C]_[A6G]_[T7C]_F4.1_[T8C]_T4.1 (ssRNA)
RNA: UUUGAUUAAUAUGAUAUCGUUCUUUCUUGUACGCCAUUCUUUCUCGAUAUCAUAUUAAUCUUU
B17: Ic_S2_P4E.1_K4.1_C4.1_H4.1_A4.1_[T5C]_[A6G]_F4.1_[T8A]_T4.1 (ssRNA)
RNA: UUUGAUUAAUAUGAUAUCGUUCUUUCUUGUACGUAAUUCUUUCUCGAUAUCAUAUUAAUCUUU
B18: Ic_S2_P4E.1_K4.1_C4.1_H4.1_A4.1_[T5G]_[A6T]_F4.1_[T8C]_[A9C]_T4.1 (ssRNA)
RNA: UUUGAUUAAUAUGAUAUCGUUCUUUCUUGUAGUUCCUUCUUUCUCGAUAUCAUAUUAAUCUUU

The target of the series is T1, PUF4 RNA-binding domain. The experiment in a line: Mg; RNA-MaP; 20 mM Na-HEPES pH 7.4, 30 mM KOAc, 0.75 mM MgCl2, 0.1% Tween-20, 5% glycerol, 0.1 mg/mL BSA, 2 mM DTT; 25 C; 0.0125-409.6 nM protein. Particulars: tags: N-His6-TEV cleaved; C-SNAP kept, Cy3B-labelled; label: tethered on chip by stalled RNA polymerase.
With B1, binding was characterised by a dissociation constant (Kd) of 271 nM.

Turning to B2, the Kd (usually the constant that tells how readily two partners part at equilibrium) came to 117 nM.

On to B3, for which the Kd worked out at 844 nM.

B4 came in with a Kd of 1.46 nM.

Molecule B5 gave a Kd of 14.4 nM.

B6 had a Kd of 595 nM.

In turn, B7 showed a Kd of 154 nM.

In turn, B8 had a Kd of 2.26 nM.

In turn, B9 came in with a dissociation constant Kd of 1580 nM.

In the case of B10, the dissociation constant (Kd) turned out to be 171 nM.

Take B11: the dissociation constant (Kd) turned out to be 332 nM.

Molecule B12 displayed a Kd of 28.9 nM.

B13 displayed a Kd of 148 nM.

The molecule B14 came in with a Kd of 96.8 nM.

B15 registered a Kd of 81.4 nM.

Molecule B16 returned an equilibrium dissociation constant (Kd) of 22.8 nM.

In turn, B17 had a Kd of 125 nM.

Take B18: the dissociation constant Kd worked out at 257 nM.

Consider UCUCUUUGUCUUUAUCUCUU (ssRNA) [Ib_S1_P3E.1_K3.1_C3.1_H3.1_[A4C]_A3.1_[A6T]_F3.1_T3.1], for which the equilibrium dissociation constant (Kd) is > 2300 nM.

The molecule UCUCUUUGUGUCUAUCUCUU (ssRNA) [Ib_S1_P3E.1_K3.1_C3.1_H3.1_[A4G]_A3.1_[A6C]_F3.1_T3.1] displayed a Kd of 983 nM.

In turn, UCUCUUUGUGUUUAUCUCUU (ssRNA) [Ib_S1_P3E.1_K3.1_C3.1_H3.1_[A4G]_A3.1_[A6T]_F3.1_T3.1] returned a Kd of 549 nM.

UCUCUUUGUGUGUAUCUCUU (ssRNA) [Ib_S1_P3E.1_K3.1_C3.1_H3.1_[A4G]_A3.1_[A6G]_F3.1_T3.1] registered a Kd of 178 nM.

The values above are taken from publication PMC9352680, “A comprehensive thermodynamic model for RNA binding by the Saccharomyces cerevisiae Pumilio protein PUF4”.
